{
  "source": "patent US12714749B2",
  "about": "“Anti-CK8 antibody and exosome compositions, methods of making, and methods of treating” (PEAK WAY GROUP INC., priority 2022, dated 2026)",
  "key": {"[1]": {"system": "MCF-7/MX cells", "test": "SRB method, sensitivity of cells to chemotherapy drugs", "format": "cell-based", "settings": "Homo sapiens, MCF7/MX, read-out: IC50 of chemotherapy drug", "method": "The SRB method was used to detect the sensitivity of cells to chemotherapy drugs: 800 μg/L mitoxantrone was added in the process of culturing MCF-7/MX cells to maintain drug resistance, and the drug administration stopped two weeks before experiment. 100 μg/mL CK8-1R5 monoclonal antibody and/or 100 μg/mL BCRP inhibitor KS176 (Bai Olette, product No.: M01428) were added into cell culture wells of MCF-7/MX cells, and the culture medium was added for blank control. After 24 hours of culture, digestive cells were inoculated into a 96-well plate, with 2000 cells/well, and 3 double wells. The cells were continued to be cultured for 24 h until complete adherence. After adding different concentrations of chemotherapy drugs (mitoxantrone, topotecan, and daunorubicin) to act for 48 h, the culture was terminated. 50 IA of pre-cooled 50% (mass/volume) trichloroacetic acid was added into each well for immobilizing cells, and the culture plate was transferred into a refrigerator at 4° C. after standing for 1 h; the culture plate was taken, each well was washed with deionized water 5 times to remove TCA, and then dried in air; after complete drying, 100 μl of 0.4% SRB prepared with 1% acetic acid was added into each well and stained for 30 min at room temperature, and then the solution in each well was discarded; the well was washed 5 times using 1% acetic acid to remove unbound dye, and dried in air; 150 μl of 10 mM Tris alkaline solution with pH 10.5 was used for dissolving the sample in each well, the sample was oscillated for 5 min on a flat oscillator, and the absorbance of each well at 490 nm was measured on a BioRad microplate reader. The IC50 value was calculated using Prism software."}, "[2]": {"system": "MCF7/MX cells", "test": "Tumor growth in mice subcutaneously inoculated with MCF7/MX cells", "format": "in vivo", "settings": "after 14 days of administration; FIG. 4", "method": "MCF-7 was selected as a source cell of a tumor exosome, and the culture medium was DMEM with 10% Fetal bovine serum. After being transferred to a cell incubator (37° C. constant temperature, volume fraction, 5% CO2) for 48 h, the supernatant of tumor cells was collected and gradient centrifuged (2000×g, centrifuge, 20 min, 10000×g, centrifuge for 30 min) to remove cell debris, large vesicles were removed using a 0.22 μm filter; the filtrate was centrifuged for 70 min at 100000×g, the supernatant was discarded and then resuspended with 100 μL of DPBS at the bottom of a centrifuge tube, and the exosomes were recovered and stored at […] in refrigerator for future use. […]\nAfter the inguinal areas of mice were subcutaneously inoculated with 5×10^5 MCF7/MX cells for 7 d, tumor bearing mice were randomly divided into 5 groups according to random number table: blank control group, exosome group loaded with erythromycin, exosome group loaded with CK8-1R5 monoclonal antibody combined with erythromycin, CK8-1R5 monoclonal antibody group, and erythromycin group. […] After 14 days of the first administration, the mice were euthanized and the tumor volume=short diameter^2×Long diameter/2 was measured[…]."}, "[3]": {"target": "T1, CK8 protein (Homo sapiens, UniProt P05787)", "T1 construct": "made in house; host or cells: E. coli BL21 (DE3), vector pET-28a(+)", "T1 sequence (P05787 1-483)": "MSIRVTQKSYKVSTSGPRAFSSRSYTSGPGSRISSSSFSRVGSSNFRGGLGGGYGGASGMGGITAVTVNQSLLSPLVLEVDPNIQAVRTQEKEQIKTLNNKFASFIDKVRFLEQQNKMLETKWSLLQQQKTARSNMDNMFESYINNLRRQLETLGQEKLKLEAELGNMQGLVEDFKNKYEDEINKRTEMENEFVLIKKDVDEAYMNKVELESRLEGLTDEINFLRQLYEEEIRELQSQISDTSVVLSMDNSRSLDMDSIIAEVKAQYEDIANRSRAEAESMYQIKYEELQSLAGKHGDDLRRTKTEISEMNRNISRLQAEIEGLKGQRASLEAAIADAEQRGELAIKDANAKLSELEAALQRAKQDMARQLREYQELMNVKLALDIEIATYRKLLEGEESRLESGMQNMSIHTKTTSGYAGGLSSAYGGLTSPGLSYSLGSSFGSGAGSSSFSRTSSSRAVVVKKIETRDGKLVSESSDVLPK", "test": "Binding ability test (antibody on aminopropyl sensor, spectral phase difference)", "settings": "fit from binding and dissociation phase difference; read-out: affinity for CK8 protein", "method": "Binding ability test: 1 mg of CK8-1R5 monoclonal antibody was taken and dispersed into 1 mL of PBS buffer solution; the prepared antibody dispersion was immobilized on an aminopropyl sensor, the sensor immobilized with the antibody was balanced in PBS buffer and then interact with different concentrations of CK8 protein solutions respectively, and then the spectral phase difference caused by CK8 protein binding to the antibody was recorded. After binding equilibrium, the sensor was placed in PBS buffer, the spectral phase difference caused by protein dissociation from the antibody was recorded, and the antibody's affinity to the protein was fit based on the phase difference."}, "[4]": {"target": "T1, CK8 protein", "test": "Indirect ELISA titer of monoclonal antibody", "format": "binding", "method": "The titer of monoclonal antibodies was determined using an indirect ELISA method. An ELIASA plate (100 μl/well) was coated with […] of purified recombinant CK8 protein overnight at 4° C., and sealed for 1 h at 10% BSA room temperature. Different concentrations of CK8-1R5 monoclonal antibodies subjected to multiple dilution were added respectively, and incubated at 37° C. for 1 h. After washing 3 times with 0.05% PBST, HRP labeled sheep anti-mouse IgG with a dilution of 1:2000 was added, and the obtained mixture was incubated at 37° C. for 1 h and then washed. A developing agent ABTS was added, and the absorbance (A) value at a wavelength of 405 nm was read on microplate reader. Simultaneously, SP2/0 myeloma cell culture supernatant was used as negative control. The highest dilution ratio of the sample that produces a positive reaction was used as its potency."}, "[5]": {"target": "T1, CK8 protein", "test": "Specificity identification by ELISA", "format": "binding", "settings": "plate coated with CK8 protein, MCF7 cell lysate, BSA, Escherichia coli lysate, NIH3T3 lysate; FIG. 3", "method": "Specificity identification: each 1 μg of CK8 protein, MCF7 cell lysate, BSA, Escherichia coli lysate and mouse fibroblast NIH3T3 lysate was used to coat the ELISA plate, with PBS wells as blank control. After washing with PBS, 2.5% skimmed milk was added and the plate was sealed at room temperature for 1 h. After washing with PBS, 1:10 diluted cell culture supernatant (monoclonal antibody, primary antibody) was added, the plate was incubated at 37° C. for 1 and washed with 0.05% PBST 3 times, 1:2000 diluted HRP labeled sheep anti-mouse IgG (second antibody) was added, washed after incubation at 37° C. for 1 h, a developing agent ABTS was added, and the absorbance (A) value at 405 nm wavelength was read on the microplate reader."}, "[6]": {"settings": "MCF-7/MX cells without inhibitor, drug 48 h"}},
  "note": "Where two headings read alike, the source gives them in different places.",
  "data": [
    {"molecule": "COc1cccc2c1C(=O)c1c(O)c3c(c(O)c1C2=O)C[C@@](O)(C(C)=O)C[C@@H]3O[C@H]1C[C@H](N)[C@H](O)[C@H](C)O1", "note": "[Daunorubicin, daunorubicin]", "values": [
      {"measurement": "IC50", "setting": "[1]; 48 h", "result": "0.431 ± 0.0102", "unit": "µM"}
    ]},
    {"molecule": "O=C1c2c(O)ccc(O)c2C(=O)c2c(NCCNCCO)ccc(NCCNCCO)c21", "note": "[Mitoxantrone, mitoxantrone]", "values": [
      {"measurement": "IC50", "setting": "[1]; [6]", "result": "25 ± 1.35", "unit": "µM"}
    ]},
    {"molecule": "CC[C@@]1(O)C(=O)OCc2c1cc1n(c2=O)Cc2cc3c(CN(C)C)c(O)ccc3nc2-1", "note": "[Topotecan, topotecan]", "values": [
      {"measurement": "IC50", "setting": "[1]; [6]", "result": "18 ± 1.34", "unit": "µM"}
    ]},
    {"molecule": "CK8-1R5: mouse monoclonal antibody (IgG1) specifically binding to CK8; heavy chain variable region SEQ ID NO: 1, light chain SEQ ID NO: 2 (antibody, V domains shown, Glu Val Gln Leu Val Glu Ser Gly Gly Gly Leu Val Gln Pro Gly Gly Ser Leu Arg Leu Ser Cys Ala Ala Ser Gly Phe Ser Leu Ser Ile Pro Tyr Ile Tyr Trp Val Arg Gln Ala Pro Gly Lys Gly Leu Glu Trp Val Gly Ala Gln Gly Cys Gly Asn Phe Tyr Leu Gly Trp Phe Gly Val Met; The amino acid sequence of the present application is artificially synthesized) VH: EVQLVESGGGLVQPGGSLRLSCAASGFSLSIPYIYWVRQAPGKGLEWVGAQGCGNFYLGWFGVMSRFTISKDNSKNTLYLQMNSLRAEDTAVYYCARFYGMVEIEHVEDVWGQGTLVTVSS VL: AYQMTQSPSSVSASVGDRVTITCVQPKPHPMCRKWYQQKPGKAPKLLIYMQKDQDNGVPSRFSGSGSGTDFTLTISSLQPEDFATYYCFFPRSRTVCDPKEFGGGTKVEIK", "values": [
      {"measurement": "tumor volume difference versus blank control group", "setting": "[2]", "result": "no statistically significant difference (P>0.05)"},
      {"measurement": "Kd", "setting": "[3]", "result": 0.00633, "unit": "µM"},
      {"measurement": "absorbance (A) value at 405 nm", "setting": "[4]; antibody dilution 1:400", "result": 1.679},
      {"measurement": "absorbance (A) value at 405 nm", "setting": "[4]; antibody dilution 1:800", "result": 1.136},
      {"measurement": "absorbance (A) value at 405 nm", "setting": "[4]; antibody dilution 1:1600", "result": 0.821},
      {"measurement": "absorbance (A) value at 405 nm", "setting": "[4]; antibody dilution 1:3200", "result": 0.596},
      {"measurement": "absorbance (A) value at 405 nm", "setting": "[4]; antibody dilution 1:6400", "result": 0.284},
      {"measurement": "specificity of binding", "setting": "[5]", "result": "only binds to CK8 protein or MCF7 cell lysate expressing the CK8 protein"}
    ]}
  ]
}
